Measurements published in the supplement of paper PMC11316812.
± gives the standard deviation of the averaged measurements.

Tests used:
MCF7 = test: percentage of EdU-negative (G0-arrested) nuclei per well, 72 h; higher = more G0 arrest; settings: reference: sequence is the full UniProt precursor, the tested protein was the secreted form or ectodomain
hTERT-HMEC = test: as above; settings: reference: sequence is the full UniProt precursor, the tested protein was the secreted form or ectodomain
[1] = protein concentration 0.0225 µM
[2] = protein concentration 0.0357143 µM
[3] = protein concentration 0.357143 µM
[4] = protein concentration 0.0193425 µM
[5] = protein concentration 0.193425 µM
[6] = protein concentration 0.00875 µM
[7] = protein concentration 0.0875 µM
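Note: secreted proteins added to cultured cells, EdU pulse at the end, nuclei found by Hoechst imaging, EdU status from nuclear versus surrounding ring intensity ratio, PBS as neutral control.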

MHQMNAKMHFRFVFALLIVSFNHDVLGKNLKYRIYEEQRVGSVIARLSEDVADVLLKLPNPSTVRFRAMQRGNSPLLVVNEDNGEISIGATIDREQLCQKNLNCSIEFDVITLPTEHLQLFHIEVEVLDINDNSPQFSRSLIPIEISESAAVGTRIPLDSAFDPDVGENSLHTYSLSANDFFNIEVRTRTDGAKYAELIVVRELDRELKSSYELQLTASDMGVPQRSGSSILKISISDSNDNSPAFEQQSYIIQLLENSPVGTLLLDLNATDPDEGANGKIVYSFSSHVSPKIMETFKIDSERGHLTLFKQVDYEITKSYEIDVQAQDLGPNSIPAHCKIIIKVVDVNDNKPEININLMSPGKEEISYIFEGDPIDTFVALVRVQDKDSGLNGEIVCKLHGHGHFKLQKTYENNYLILTNATLDREKRSEYSLTVIAEDRGTPSLSTVKHFTVQINDINDNPPHFQRSRYEFVISENNSPGAYITTVTATDPDLGENGQVTYTILESFILGSSITTYVTIDPSNGAIYALRIFDHEEVSQITFVVEARDGGSPKQLVSNTTVVLTIIDENDNVPVVIGPALRNNTAEITIPKGAESGFHVTRIRAIDRDSGVNAELSCAIVAGNEENIFIIDPRSCDIHTNVSMDSVPYTEWELSVIIQDKGNPQLHTKVLLKCMIFEYAESVTSTAMTSVSQASLDVSMIIIISLGAICAVLLVIMVLFATRCNREKKDTRSYNCRVAESTYQHHPKRPSRQIHKGDITLVPTINGTLPIRSHHRSSPSSSPTLERGQMGSRQSHNSHQSLNSLVTISSNHVPENFSLELTHATPAVEQVSQLLSMLHQGQYQPRPSFRGNKYSRSYRYALQDMDKFSLKDSGRGDSEAGDSDYDLGRDSPIDRLLGEGFSDLFLTDGRIPAAMRLCTEECRVLGHSDQCWMPPLPSPSSDYRSNMFIPGEEFPTQPQQQHPHQSLEDDAQPADSGEKKKSFSTFGKDSPNDEDTGDTSTSSLLSEMSSVFQRLLPPSLDTYSECSEVDRSNSLERRKGPLPAKTVGYPQGVAAWAASTHFQNPTTNCGPPLGTHSSVQPSSKWLPAMEEIPENYEEDDFDNVLNHLNDGKHELMDASELVAEINKLLQDVRQS [Q9HCL0]
percentage of EdU-negative (MCF7; [1]): 28.4 ± 2%
percentage of EdU-negative (MCF7; protein concentration 0.225 µM): 32.5 ± 0.58%
percentage of EdU-negative (hTERT-HMEC; [1]): 3.86 ± 0.13%
percentage of EdU-negative (hTERT-HMEC; protein concentration 0.225 µM): 11.6 ± 1.6%

MKRVLVLLLAVAFGHALERGRDYEKNKVCKEFSHLGKEDFTSLSLVLYSRKFPSGTFEQVSQLVKEVVSLTEACCAEGADPDCYDTRTSALSAKSCESNSPFPVHPGTAECCTKEGLERKLCMAALKHQPQEFPTYVEPTNDEICEAFRKDPKEYANQFMWEYSTNYGQAPLSLLVSYTKSYLSMVGSCCTSASPTVCFLKERLQLKHLSLLTTLSNRVCSQYAAYGEKKSRLSNLIKLAQKVPTADLEDVLPLAEDITNILSKCCESASEDCMAKELPEHTVKLCDNLSTKNSKFEDCCQEKTAMDVFVCTYFMPAAQLPELPDVELPTNKDVCDPGNTKVMDKYTFELSRRTHLPEVFLSKVLEPTLKSLGECCDVEDSTTCFNAKGPLLKKELSSFIDKGQELCADYSENTFTEYKKKLAERLKAKLPDATPTELAKLVNKHSDFASNCCSINSPPLYCDSEIDAELKNIL
percentage of EdU-negative (MCF7; [2]): 25.9 ± 0.66%
percentage of EdU-negative (MCF7; [3]): 27.2 ± 1.1%
percentage of EdU-negative (hTERT-HMEC; [2]): 6.02 ± 1.8%
percentage of EdU-negative (hTERT-HMEC; [3]): 16.1 ± 0.49%

MEKIPVSAFLLLVALSYTLARDTTVKPGAKKDTKDSRPKLPQTLSRGWGDQLIWTQTYEEALYKSKTSNKPLMIIHHLDECPHSQALKKVFAENKEIQKLAEQFVLLNLVYETTDKHLSPDGQYVPRIMFVDPSLTVRADITGRYSNRLYAYEPADTALLLDNMKKALKLLKTEL
percentage of EdU-negative (MCF7; [1]): 25.2 ± 1.5%
percentage of EdU-negative (MCF7; protein concentration 0.225 µM): 25.7 ± 0.74%
percentage of EdU-negative (hTERT-HMEC; [1]): 4.87 ± 0.93%
percentage of EdU-negative (hTERT-HMEC; protein concentration 0.225 µM): 7.88 ± 0.32%

MEEAILVPCVLGLLLLPILAMLMALCVHCHRLPGSYDSTSSDSLYPRGIQFKRPHTVAPWPPAYPPVTSYPPLSQPDLLPIPRSPQPLGGSHRTPSSRRDSDGANSVASYENEGASGIRGAQAGWGVWGPSWTRLTPVSLPPEPACEDADEDEDDYHNPGYLVVLPDSTPATSTAAPSAPALSTPGIRDSAFSMESIDDYVNVPESGESAEASLDGSREYVNVSQELHPGAAKTEPAALSSQEAEEVEEEGAPDYENLQELN
percentage of EdU-negative (MCF7; [1]): 25.6 ± 1.2%
percentage of EdU-negative (MCF7; protein concentration 0.225 µM): 25.8 ± 2.6%
percentage of EdU-negative (hTERT-HMEC; [1]): 5.1 ± 0.68%
percentage of EdU-negative (hTERT-HMEC; protein concentration 0.225 µM): 5.5816 ± 0.0039%

MDLSAAAALCLWLLSACRPRDGLEAAAVLRAAGAGPVRSPGGGGGGGGGGRTLAQAAGAAAVPAAAVPRARAARRAAGSGFRNGSVVPHHFMMSLYRSLAGRAPAGAAAVSASGHGRADTITGFTDQATQDESAAETGQSFLFDVSSLNDADEVVGAELRVLRRGSPESGPGSWTSPPLLLLSTCPGAARAPRLLYSRAAEPLVGQRWEAFDVADAMRRHRREPRPPRAFCLLLRAVAGPVPSPLALRRLGFGWPGGGGSAAEERAVLVVSSRTQRKESLFREIRAQARALGAALASEPLPDPGTGTASPRAVIGGRRRRRTALAGTRTAQGSGGGAGRGHGRRGRSRCSRKPLHVDFKELGWDDWIIAPLDYEAYHCEGLCDFPLRSHLEPTNHAIIQTLLNSMAPDAAPASCCVPARLSPISILYIDAANNVVYKQYEDMVVEACGCR [Q7Z4P5]
percentage of EdU-negative (MCF7; [4]): 26.75 ± 0.031%
percentage of EdU-negative (MCF7; [5]): 28.9 ± 2.2%
percentage of EdU-negative (hTERT-HMEC; [4]): 5.309 ± 0.0057%
percentage of EdU-negative (hTERT-HMEC; [5]): 5.34 ± 1.2%

MLRKGCCVELLLLLVAAELPLGGGCPRDCVCYPAPMTVSCQAHNFAAIPEGIPVDSERVFLQNNRIGLLQPGHFSPAMVTLWIYSNNITYIHPSTFEGFVHLEELDLGDNRQLRTLAPETFQGLVKLHALYLYKCGLSALPAGVFGGLHSLQYLYLQDNHIEYLQDDIFVDLVNLSHLFLHGNKLWSLGPGTFRGLVNLDRLLLHENQLQWVHHKAFHDLRRLTTLFLFNNSLSELQGECLAPLGALEFLRLNGNPWDCGCRARSLWEWLQRFRGSSSAVPCVSPGLRHGQDLKLLRAEDFRNCTGPASPHQIKSHTLTTTDRAARKEHHSPHGPTRSKGHPHGPRPGHRKPGKNCTNPRNRNQISKAGAGKQAPELPDYAPDYQHKFSFDIMPTARPKRKGKCARRTPIRAPSGVQQASSASSLGASLLAWTLGLAVTLR [Q86UN2]
percentage of EdU-negative (MCF7; [6]): 26.2 ± 0.18%
percentage of EdU-negative (MCF7; [7]): 28.6 ± 1.4%
percentage of EdU-negative (hTERT-HMEC; [6]): 5.4 ± 1%
percentage of EdU-negative (hTERT-HMEC; [7]): 5.31 ± 0.34%
